From article doi:10.1101/577460

Target: microtubules (porcine brain Tubulin) (porcine (brain)) (UniProt P02550)
Test: turbidimetry

Sequence of LEM2_(188-212) peptide (Q8NC56 188-212): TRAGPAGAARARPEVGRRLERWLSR
Sequence of LEM2_(1-208) (Q8NC56 1-208): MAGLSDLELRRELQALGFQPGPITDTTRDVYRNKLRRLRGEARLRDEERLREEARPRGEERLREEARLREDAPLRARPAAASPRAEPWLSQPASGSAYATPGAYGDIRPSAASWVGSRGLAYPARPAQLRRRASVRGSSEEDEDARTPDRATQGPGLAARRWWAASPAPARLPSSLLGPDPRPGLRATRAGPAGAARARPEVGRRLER

Row | half maximal concentration (MT bundling) [µM] | half-maximal scattering concentration (MT bundling) [µM] | Substance
1 | 85.1 |  | LEM2_(188-212) peptide (from UniProt Q8NC56 188-212)
2 |  | 1.3 | LEM2_(1-208) (from UniProt Q8NC56 1-208) (domain or fragment)
